Measured values published in patent publication US20240383974A1 (BETTA PHARMACEUTICALS, published 2024).
Read-outs that look alike come from different tables or passages of the source. One block for each binder: values may come before it.

Legend:
[1] = target: T1, GARP (CHO-K1-GARP cell line that overexpresses GARP) (UniProt Q14392 20-662, limits assumed); test: FACS on CHO-K1-GARP cells
T1 construct: whole, on cells; also called GARP protein
T1 sequence (looked up): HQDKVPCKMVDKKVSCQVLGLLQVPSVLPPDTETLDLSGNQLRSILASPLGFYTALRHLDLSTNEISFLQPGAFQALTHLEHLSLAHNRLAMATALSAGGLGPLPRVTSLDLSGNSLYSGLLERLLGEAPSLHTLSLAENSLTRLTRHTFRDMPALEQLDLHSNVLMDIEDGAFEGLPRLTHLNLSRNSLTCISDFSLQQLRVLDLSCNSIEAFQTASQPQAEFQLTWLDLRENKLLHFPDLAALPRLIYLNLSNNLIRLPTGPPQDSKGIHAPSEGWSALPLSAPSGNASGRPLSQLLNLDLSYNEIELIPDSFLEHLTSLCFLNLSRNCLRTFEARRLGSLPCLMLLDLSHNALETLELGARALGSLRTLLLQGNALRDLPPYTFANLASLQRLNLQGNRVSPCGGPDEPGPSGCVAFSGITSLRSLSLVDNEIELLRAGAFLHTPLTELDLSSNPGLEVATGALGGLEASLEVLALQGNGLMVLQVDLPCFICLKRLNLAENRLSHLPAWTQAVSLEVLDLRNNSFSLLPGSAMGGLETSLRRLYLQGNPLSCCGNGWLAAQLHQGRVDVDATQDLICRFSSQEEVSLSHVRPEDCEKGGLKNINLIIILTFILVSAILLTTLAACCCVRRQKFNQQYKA

[2] = target: T2, GARP-TGF-β complex (293-GARP/TGFβ stably transfected cells) (UniProt Q14392 20-662; P01137 30-390); test: FACS on 293-GARP/TGFβ cells
T2 construct: whole, on cells; Complex of GARP and (latent) TGF-β on the cell surface; also called 293-GARP/TGFβ cell; 293F-GAPR/TGFβ/αvβ6 cells

[3] = target: T3, human transforming growth factor β1 (human, UniProt P01137 279-390); test: ELISA, plate-coated hTGF-β1
T3 construct: Coated on the ELISA plate at 100 ng/well; also called hTGF-β1; TGF-β
T3 sequence (P01137 279-390 limits assumed): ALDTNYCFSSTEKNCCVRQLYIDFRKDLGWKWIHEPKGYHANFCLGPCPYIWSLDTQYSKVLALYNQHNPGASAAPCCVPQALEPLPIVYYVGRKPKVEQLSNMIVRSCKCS

[4] = target: T2, GARP-TGF-β complex (293-GARP/TGFβ …); test: cell-based or functional assay
human PD-L1 [5] = target: T4, human PD-L1 (human, UniProt Q9NZQ7 19-290); test: cell-based or functional assay
T4 sequence (Q9NZQ7 19-290): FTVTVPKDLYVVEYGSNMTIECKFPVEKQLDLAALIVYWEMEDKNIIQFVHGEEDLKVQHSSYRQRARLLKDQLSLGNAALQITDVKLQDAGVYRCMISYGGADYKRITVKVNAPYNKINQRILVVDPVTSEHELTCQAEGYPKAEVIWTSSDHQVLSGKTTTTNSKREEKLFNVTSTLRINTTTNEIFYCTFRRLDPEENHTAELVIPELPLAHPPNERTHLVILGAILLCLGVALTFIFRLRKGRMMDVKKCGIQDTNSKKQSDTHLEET

human PD-L1 [6] = target: T4, human PD-L1; test: FACS on MC38-hPD-L1 cells
[7] = target: T2, GARP-TGF-β complex (293-GARP/TGFβ …); test: FACS on 293-GARP/TGFβ cells; remark: listed apart in the source

EC50 [1]: 0.46 nM | EC50 [2]: < 2 nM
B1: antibody m212 (antibody, V domains shown)
VH: QVQLQQPGPELVKPGASVKLTCKASGYIFTSYWMHWVKRGPGRGLEWIGRIAPNSGGAHYHEKFKTKVTLTVDKPSSTAYMEFSSLTSEDSAVYYCARGNYGMDYWGQGTAVTVSS
VL: DIQMTQTTSSLSASLGDRVTISCRASQDISNYLNWYQQKPDGTVELLIYYTSTLHSGVPSRFSGSGSGTDYSLTISNLEQEDIATYFCQQVNTLPFTFGSGTKLEII
notes: Hybridoma-derived, expressed in mammalian cells; hIgG1 and hIgG4 as controls

EC50 [2]: 2.5 nM | EC50 [3]: < 1 nM
B2: antibody m301 (antibody, V domains shown)
VH: QVQLKESGPGLVAPSQSLSITCTVSGFSLTTYGVTWVRQPPGKGLQWLGLIWGDGTTDYHSTFISRLSISKDKSKNQVFFKLNSLQTDDTATYYCASYYFAMHYWGQGTSVTVSS
VL: DIVMSQSPSSLAVSAGEKVTMNCKSSQSLLNSRTQKNYLAWYQQKPGQSPKLLIYWASTRESGVPDRFTGSGSGTDFTLTIISVQAEDLAVYYCKQSYNLWTFGGGTKLEIK

EC50 [2]: > 5 nM | EC50 [3]: < 1 nM
B3: antibody m109 (antibody, V domains shown)
VH: EVKLVESGGGLVQPGGSLKLSCATSGFTFSDYYMYWVRQTPEKRLEWVAYISNGGGRTYYPDTVKGRFTISRDNAKNTLYLQMSRLKSEDRAIYYCARQKTNYGNYEEDYYAMGYWGQGTSVTVSS
VL: DIVLTQSPASLAVSLGQRATISCRASKSVSTSGYSYIHWYQQKPGQPPKLLIYLASNLESGVPARFSGSGSGTDFTLNIHPVEEEDAATYYCQHSRELPLTFGAGTKLDLK

EC50 [1]: < 1 nM | EC50 [2]: 4.1 nM
B7: antibody m305 (antibody, V domains shown)
VH: EVQLQQSGPELVKPGASVKIPCKTSGYTFTDYNMNWVKQSHGKSLEWIGDINPYSGGTIYNQKFKGKAILTVDKSSSTAYMELRSLTSEDTGIYYCARVSKGSGDYWGQGTTLTVSS
VL: DIQMTQSPSSLSASLGERVSLTCRASQEISGYLSWLQQKPDGTIKRLIYAASTLDSGVPKRFSGSRSGSDYSLTISSLESEDFADYYCLQYASYPTCTFGGGTKLEIK

The next lines start with the binder.

B4: antibody m202 (antibody, V domains shown)
VH: QVQLQQPGTELVKPGASVKLSCKASGYTFTSYWMHWVKQRPGQGLEWIGNINPSNGDTNYNEKFKSKATLTVDKSSSTAYMQLSSLTSDDSAVYYCARATYGSYGYFDVWGTGTAVTVSS
VL: DIVLTQSPASLAMSLGKRATISCRASESVTIIGTNLIQWFQQKPGQPPKLLIYHASNLETGVPARFSGSGSRTDFTLTIDPVEEDDVAIYYCLQSRQIPRTFGGGTKLEIK
EC50 [2]: 2.7 nM | EC50 [3]: < 1 nM

B5: antibody m107 (antibody, V domains shown)
VH: QVHLQQSGAALARPGASVKMSCKASGYTFSAYTIHWVKQRPGQGLEWIGYINPSNDFAKYIQKFKDKATLTADKSSSTAYMQLNSLTSEDSAIYYCARVDYYGGSYRWYLDVWGAGTTVTVSS
VL: DIVLTQSPATLSVTPGDSVSLSCRASQSISNNLHWYQQKSHESPRLLIKYTSQSISGIPSRFSGSGSGTDFTLSINSVETEDFGMYFCQQSNSWPIFTFGSGTKLEIK
EC50 [1]: > 2 nM | EC50 [2]: 3.2 nM | EC50 [3]: 0.021 nM

B6: b202-hu-H-D2hu (bispecific antibody, human IgG1, kappa)
heavy: not shown
light: DIVLTQSPDSLAVSLGERATINCRASESVTIIGTNLIQWFQQKPGQPPKLLIYHASNLETGVPDRFSGSGSRTDFTLTISSLQAEDVAVYYCLQSRQIPRTFGGGTKVEIKRTVAAPSVFIFPPSDEQLKSGTASVVCLLNNFYPREAKVQWKVDNALQSGNSQESVTEQDSKDSTYSLSSTLTLSKADYEKHKVYACEVTHQGLSSPVTKSFNRGEC
notes: also called b202-H-D2hu
IC50(nM), TGFβ reporter gene blocking (293F-GAPR/TGFβ/αvβ6 cells with 293-SBE-Luciferase cells) [4]: 4.9 nM | IC50(nM), PD-1/PD-L1 NFAT-luciferase reporter (293T-hPD-L1 with Jurkat-PD1-CD3zeta-NFAT-Luc2 cells) (human PD-L1 [5]): 7.8 nM | EC50 (human PD-L1 [6]): 0.34 nM | EC50 [7]: 5.6 nM
